Measurements taken from the supplement of paper PMC9170038.

Tested on: MS2 coat protein
Assay: apparent KD of MS2 coat protein; designed switch direction (-1 OFF switch, 1 ON switch): 1; higher = weaker reporter binding
How it was run: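 Apparent KD, taken as the median over clusters for each design, was obtained by curve-fitting normalised cluster fluorescence. Designed RNA switches had been transcribed on Illumina chips by stalled E. coli RNA polymerase and titrated with SNAP-549-labelled MS2 coat protein, doubling from 0.7 or 1.5 nM to 3 µM.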

[1] = input ligand: microRNA oligo, concentration not stated
[2] = Eterna round: R95, input ligand: FMN 200 uM
[3] = Eterna round: R95, input ligand: microRNA oligo, concentration not stated
[4] = Eterna round: R95, input ligand: none

| Sequence | apparent KD of MS2 coat protein (input ligand: FMN 200 uM) [nM] | apparent KD of MS2 coat protein [1] [nM] | apparent KD of MS2 coat protein (input ligand: none) [nM] | apparent KD of MS2 coat protein [2] [nM] | apparent KD of MS2 coat protein [3] [nM] | apparent KD of MS2 coat protein [4] [nM] |
| --- | --- | --- | --- | --- | --- | --- |
| ACGCAAAAUGGAGGAUAUGGAGCCUUAUUGGCUCCAGAAGGUCAAAACAUGAGGAUCACCCAUGUGCGGUGGUCUAAUGACCAC [Eli NG1ss - 46] (Eterna round: R96, puzzle: Same State NG 1) | 41.5 | 109 | 172 | – | – | – |
| AGAGCCGGCACUGAGGAUAUUCAUAUUAAAACAUGAGGAUCACCCAUGUAGGCCAGAAGGCCUUGGGAGAAGGCAGGUCGGCUCA [Mat - Same State 2 - Mod of UCT - D58] (puzzle: Same State 2) | – | – | – | 25.2 | 212 | 484 |
| UUAAUUAAUUAAUUAUACAUGAGGAUCACCCAUGUAAGUGAUCAGGAUAUCAGCUCGUUUAGAGCUGAGAAGGGAUACAUGAAU [SSNG3/12-A3] (Eterna round: R96, puzzle: Same State NG 3) | 91.6 | 85.9 | 143 | – | – | – |
| GGAGCCGGCCUAGGAUAUUUCAUAAAAACACAUGAGGAUCACCCAUGUAGGCCAGAAGGCCUUGGGAAGAAGGAGGUCGGCUCC [Loop Effect - C29] (Eterna round: R96, puzzle: Same State NG 2) | 10.6 | 18.3 | 23.6 | – | – | – |
| AGUCCUGAAAAGAAAAUAAUAAGUGAUGUACAUGAGGAUCACCCAUGUCAUGUACAAGUUCUAUGCUCGUCAUAUAA [Sensorship 24 - Jieux - Sensor for hsa-mir-208a] (puzzle: Sensor for hsa-mir-208a) | – | – | – | 106 | 32.2 | 98.1 |
| UCUCGGGUCGUAGGAUAUGUAGGAUAUGUACAUGAGGAUCACCCAUGUCUACCAGAGACAGAAGGACAGAAGGACGAGCCGAGC [pwkr ssNG2 2FMN 1F5s.7] (Eterna round: R96, puzzle: Same State NG 2) | 19.5 | 19 | 36.3 | – | – | – |
| AAUAACAAUUUAGGAUAUCGACAGCGAAACUCACGAGAAGGAGAUAAGAGGCUGGCCUCGCGCACAUGAGGAUCACCCAUGUCG [Eternabot solution 25] (Eterna round: R96, puzzle: Same State NG 1) | 38.1 | 29.8 | 41.1 | – | – | – |
| CUGAGCGAUCGAGGAUAUCACGUCGAUUAGACGUGAGAAGGCGAUCAUAACAUGAGGAUCACCCAUGUAUUACAUGAAGCUCAG [SSNG1/4-A2] (Eterna round: R96, puzzle: Same State NG 1) | 17.1 | 12.9 | 15.8 | – | – | – |
| UACAAUCUAUCUGAGGAUAUCAUGAAUUAUACAUGAGGAUCACCCAUGUGCAGGAAAACUGCAUAUGAGAAGGCAGAUAGAUUGU [salish99_ss2_r3_062] (puzzle: Same State 2) | – | – | – | 63.4 | 43.6 | 183 |
| UGGUACAUGGGAGGAUAUCUCAUGGUGACAUGAGGAUCACCCAUGUAGUUGGAGCCGAAAGGCUGAGAGAAGGCCCAUGUACCU [JL SSNG1 3.75] (Eterna round: R96, puzzle: Same State NG 2) | 59.4 | 98 | 78.5 | – | – | – |
| UCAGUCAUGUAAGGAUAUGCAGCCGAAACGGCUGCAGAAGGUACUAUAAUUACAUGAGGAUCACCCAUGUUAUAAAUAAAAUAU [Mat - Same State NG 1 - JL mod - D66] (Eterna round: R96, puzzle: Same State NG 1) | 23.1 | 43 | 62.6 | – | – | – |
| GGAUGAUAGACAGGAUAUUGAUUGUAAUUAGGACAAGAAGGGUCAAUGAUUUAAACGACCAGUUACAUGAGGAUCACCCAUGUU [JR_SSNG1_Sub026] (Eterna round: R96, puzzle: Same State NG 1) | 55.7 | 34 | 55.3 | – | – | – |
| GUUACAUGAGGAUCACCCAUGUGUGUGUGGGAGUAAGUGUCUUAGGAUAUCUAUGAUUUAAGUUAAGAGAAGGAAGAUUGUUGU [SS-NG3-LRO01] (Eterna round: R96, puzzle: Same State NG 3) | 479 | 261 | 395 | – | – | – |
| AGCUAUCGAAAACGAUAGCAAAAGUAUGUACAUGAGGAUCACCCAUGUCAUGUACAAGCUUUUUGCUCGUCUUAAAA [Zipper 23 - 10] (puzzle: Sensor for hsa-mir-208a) | – | – | – | 664 | 19.6 | 638 |
| GCGAAGAGGUAAGGAUAUUCAUGGCAUAGACAUGAGGAUCACCCAUGUAGGAGACGAAUUAGAAGGAAGAAGGUACCAGGACGC [AK SSNG2-V2-18] (Eterna round: R96, puzzle: Same State NG 2) | 137 | 111 | 187 | – | – | – |
| CCGAUGCAAAUAAAACAUGAGGAUCACCCAUGUGAGACACAUGAGGAUAUGCAGGUCAAAGACUUGCAGAAGGCAUAGCGUCGG [JL SSNG3 3.87] (Eterna round: R96, puzzle: Same State NG 3) | 24.1 | 227 | 270 | – | – | – |
| AUAAGUUUGAUGCUCGUCUCUCCGUACAGACAUGAGGAUCACCCAUGUAGUCGGGAAGUAGCCCGGCCUGUAUGGCC [Magequ] (puzzle: Sensor for hsa-mir-208a) | – | – | – | 15.2 | 15.7 | 14.4 |
| AACCAGAGAAAACAACUCUGACAUGAGGAUCACCCAUGUACACAGGAUAUCAGCCCGAAAAGGGCUGAGAAGGGUGGCCGAGUG [Beveat] (Eterna round: R96, puzzle: Same State NG 3) | 574 | 29.2 | 33.9 | – | – | – |
| AAAAGAAACAUGUACCUGAGUACAUGAAAACAUGAGGAUCACCCAUGUAACAAGUUGGGUGCUUGUCUUAUAAGAAA [JL pocket 4] (Eterna round: R96, puzzle: Sensor for hsa-mir-208a) | 710 | 66.7 | 822 | – | – | – |
| GUUACAUGAGGAUCACCCAUGUAUGUGUGGGAGUAAGUGUCUUAGGAUAUCUAUUGUUUAAAUUAAGAGAAGGAAGAUUGUUGU [JMF's solution 13] (Eterna round: R96, puzzle: Same State NG 3) | 102 | 84.3 | 117 | – | – | – |
| UUAGGAUGUGAAGGAUAUGCCGAGUUAAGCCCAGCAGAAGGUUACAUACCUUUUGAUACAUGAGGAUCACCCAUGUUCUAAGAU [Eternabot solution 45] (Eterna round: R96, puzzle: Same State NG 1) | – | 33.8 | – | – | – | – |
| AGUAGUGUAACAUGAGGAUCACCCAUGUAAGUAGAUGUAACCUAGGAUAUGGAUGAUAUGUUAGUCCAGAAGGAGGAUUGAAUA [JR_SSNG3_Sub037] (Eterna round: R96, puzzle: Same State NG 3) | 15.5 | 20.6 | 44.4 | – | – | – |
| CGCGGCAAGGAAGGAUAUGGGACGAAAACGUACCUAGAAGGUCCACAUGAGGAUCACCCAUGUACCAAGAAAACCGCUAAAUUA [Atceorer] (Eterna round: R96, puzzle: Same State NG 1) | 70.7 | 177 | 207 | – | – | – |
